Assays:
AncSZ = assay: phosphorylation enrichment, bacterial display (enrichment ratio); higher = better substrate or ligand; peptides without Tyr show the background
EPHB1 = EPHB1 (UniProt P54762); assay: as above
EPHB2 = EPHB2 (UniProt P29323); assay: as above
FGFR1 = FGFR1 (UniProt P11362); assay: as above
FGFR3 = FGFR3 (UniProt P22607); assay: as above
Fer (mouse) = assay: as above
Fes = Fes (UniProt P07332); assay: as above
Fyn = Fyn (UniProt P06241); assay: as above
Hck = Hck (UniProt P08631); assay: as above
Jak2 = Jak2 (UniProt O60674); assay: as above
MERTK = MERTK (UniProt Q12866); assay: as above
c-Abl (mouse) = assay: as above
c-Src = assay: as above
Grb2 SH2 = Grb2 SH2 (UniProt P62993); assay: SH2 binding enrichment of the phosphorylated peptide, bacterial display (enrichment ratio); higher = better substrate or ligand; peptides without Tyr show the background
SHP2-C SH2 = assay: as above
c-Src SH2 = assay: as above
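Wherever SH2 binding enrichment of the phosphorylated peptide, bacterial display is given: peptide library displayed on the E. coli surface as eCPX fusions, selected cells deep-sequenced, score is each peptide's frequency after selection divided by its frequency in the input.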
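Wherever phosphorylation enrichment, bacterial display is given: 11-residue human phosphosite peptides and single-mutation variants displayed on the E. coli surface, counted by deep sequencing, each peptide's frequency after selection divided by its frequency in the unselected input library; frequency after pTyr selection over input frequency; kinase dosed for 20-30% of maximal phosphorylation in three min.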

Sequence of EPHB1 (P54762 whole entry, looked up): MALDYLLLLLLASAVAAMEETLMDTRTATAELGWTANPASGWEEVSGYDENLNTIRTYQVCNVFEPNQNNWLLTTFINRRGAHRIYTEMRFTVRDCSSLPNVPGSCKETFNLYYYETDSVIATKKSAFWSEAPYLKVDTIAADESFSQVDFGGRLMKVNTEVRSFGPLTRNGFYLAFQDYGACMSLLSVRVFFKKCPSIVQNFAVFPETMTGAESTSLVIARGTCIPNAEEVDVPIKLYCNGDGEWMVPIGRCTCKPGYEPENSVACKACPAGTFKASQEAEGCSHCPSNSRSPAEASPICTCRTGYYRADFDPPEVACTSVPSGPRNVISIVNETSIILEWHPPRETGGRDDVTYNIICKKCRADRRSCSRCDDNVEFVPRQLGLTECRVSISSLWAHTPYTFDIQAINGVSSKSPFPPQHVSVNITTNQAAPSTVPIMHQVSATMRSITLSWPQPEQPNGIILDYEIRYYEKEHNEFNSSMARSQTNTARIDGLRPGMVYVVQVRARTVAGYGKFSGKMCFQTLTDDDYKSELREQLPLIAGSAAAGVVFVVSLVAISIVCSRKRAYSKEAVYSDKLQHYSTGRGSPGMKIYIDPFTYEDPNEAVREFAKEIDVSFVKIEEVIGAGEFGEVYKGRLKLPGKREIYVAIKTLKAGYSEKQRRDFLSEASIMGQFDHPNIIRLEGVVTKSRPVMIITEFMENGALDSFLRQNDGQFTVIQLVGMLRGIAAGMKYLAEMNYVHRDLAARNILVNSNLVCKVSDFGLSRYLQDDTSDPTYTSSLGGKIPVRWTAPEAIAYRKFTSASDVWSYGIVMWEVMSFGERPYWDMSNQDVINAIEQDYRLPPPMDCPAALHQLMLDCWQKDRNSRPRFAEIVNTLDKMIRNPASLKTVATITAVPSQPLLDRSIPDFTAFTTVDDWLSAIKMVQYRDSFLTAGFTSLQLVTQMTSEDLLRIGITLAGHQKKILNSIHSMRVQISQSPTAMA
Sequence of MERTK (Q12866 whole entry, looked up): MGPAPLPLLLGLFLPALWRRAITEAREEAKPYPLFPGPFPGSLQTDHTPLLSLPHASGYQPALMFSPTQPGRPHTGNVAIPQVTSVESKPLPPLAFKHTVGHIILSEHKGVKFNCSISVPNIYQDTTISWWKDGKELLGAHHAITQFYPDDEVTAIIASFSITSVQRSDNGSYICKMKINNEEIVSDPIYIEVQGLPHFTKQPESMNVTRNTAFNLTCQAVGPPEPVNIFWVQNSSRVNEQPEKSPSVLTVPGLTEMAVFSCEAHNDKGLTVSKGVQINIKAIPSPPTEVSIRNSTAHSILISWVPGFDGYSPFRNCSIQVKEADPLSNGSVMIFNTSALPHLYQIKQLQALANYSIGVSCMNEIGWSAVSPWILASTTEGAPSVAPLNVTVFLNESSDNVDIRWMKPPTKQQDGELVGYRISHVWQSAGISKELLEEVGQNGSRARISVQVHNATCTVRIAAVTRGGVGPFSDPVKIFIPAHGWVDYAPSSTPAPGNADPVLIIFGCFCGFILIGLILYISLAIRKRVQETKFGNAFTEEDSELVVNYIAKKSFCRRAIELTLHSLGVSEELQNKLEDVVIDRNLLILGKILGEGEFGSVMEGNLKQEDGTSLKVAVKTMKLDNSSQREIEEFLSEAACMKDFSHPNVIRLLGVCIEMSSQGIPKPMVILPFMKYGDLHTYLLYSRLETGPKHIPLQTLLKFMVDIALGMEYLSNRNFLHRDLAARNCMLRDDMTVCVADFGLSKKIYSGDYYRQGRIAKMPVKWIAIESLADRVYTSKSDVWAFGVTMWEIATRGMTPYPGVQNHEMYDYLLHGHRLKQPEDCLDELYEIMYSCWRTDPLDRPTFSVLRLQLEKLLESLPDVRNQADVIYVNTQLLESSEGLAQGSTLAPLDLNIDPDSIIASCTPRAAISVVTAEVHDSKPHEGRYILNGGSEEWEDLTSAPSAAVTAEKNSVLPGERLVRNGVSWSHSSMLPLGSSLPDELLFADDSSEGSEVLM
Sequence of EPHB2 (P29323 whole entry, looked up): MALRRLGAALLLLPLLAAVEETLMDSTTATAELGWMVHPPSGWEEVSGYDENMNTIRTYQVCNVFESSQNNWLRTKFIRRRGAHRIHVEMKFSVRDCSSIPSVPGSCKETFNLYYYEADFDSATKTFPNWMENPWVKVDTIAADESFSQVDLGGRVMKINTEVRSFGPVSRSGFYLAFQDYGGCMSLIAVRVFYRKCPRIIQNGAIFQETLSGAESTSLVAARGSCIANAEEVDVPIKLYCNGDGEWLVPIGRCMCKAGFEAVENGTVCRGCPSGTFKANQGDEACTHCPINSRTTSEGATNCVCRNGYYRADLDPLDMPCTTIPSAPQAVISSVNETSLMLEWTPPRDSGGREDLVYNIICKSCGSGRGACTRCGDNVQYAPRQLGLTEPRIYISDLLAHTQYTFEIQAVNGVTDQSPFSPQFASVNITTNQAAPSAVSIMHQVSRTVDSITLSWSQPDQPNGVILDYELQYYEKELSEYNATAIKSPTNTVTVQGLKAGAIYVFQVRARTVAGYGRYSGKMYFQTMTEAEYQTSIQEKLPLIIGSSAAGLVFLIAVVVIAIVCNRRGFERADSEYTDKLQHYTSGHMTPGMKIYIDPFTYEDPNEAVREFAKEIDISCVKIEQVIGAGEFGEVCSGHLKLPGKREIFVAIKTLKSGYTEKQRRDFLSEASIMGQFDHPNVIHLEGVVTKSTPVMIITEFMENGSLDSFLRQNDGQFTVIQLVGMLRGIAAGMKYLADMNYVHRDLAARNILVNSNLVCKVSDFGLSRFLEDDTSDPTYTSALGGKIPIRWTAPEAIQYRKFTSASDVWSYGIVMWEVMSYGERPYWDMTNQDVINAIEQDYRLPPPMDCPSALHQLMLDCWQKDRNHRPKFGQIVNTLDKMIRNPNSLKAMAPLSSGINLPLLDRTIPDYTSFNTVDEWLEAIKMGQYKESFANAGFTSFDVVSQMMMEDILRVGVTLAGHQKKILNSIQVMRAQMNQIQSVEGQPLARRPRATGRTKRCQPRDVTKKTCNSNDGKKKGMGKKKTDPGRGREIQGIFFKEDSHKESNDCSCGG
Sequence of FGFR1 (P11362 whole entry, looked up): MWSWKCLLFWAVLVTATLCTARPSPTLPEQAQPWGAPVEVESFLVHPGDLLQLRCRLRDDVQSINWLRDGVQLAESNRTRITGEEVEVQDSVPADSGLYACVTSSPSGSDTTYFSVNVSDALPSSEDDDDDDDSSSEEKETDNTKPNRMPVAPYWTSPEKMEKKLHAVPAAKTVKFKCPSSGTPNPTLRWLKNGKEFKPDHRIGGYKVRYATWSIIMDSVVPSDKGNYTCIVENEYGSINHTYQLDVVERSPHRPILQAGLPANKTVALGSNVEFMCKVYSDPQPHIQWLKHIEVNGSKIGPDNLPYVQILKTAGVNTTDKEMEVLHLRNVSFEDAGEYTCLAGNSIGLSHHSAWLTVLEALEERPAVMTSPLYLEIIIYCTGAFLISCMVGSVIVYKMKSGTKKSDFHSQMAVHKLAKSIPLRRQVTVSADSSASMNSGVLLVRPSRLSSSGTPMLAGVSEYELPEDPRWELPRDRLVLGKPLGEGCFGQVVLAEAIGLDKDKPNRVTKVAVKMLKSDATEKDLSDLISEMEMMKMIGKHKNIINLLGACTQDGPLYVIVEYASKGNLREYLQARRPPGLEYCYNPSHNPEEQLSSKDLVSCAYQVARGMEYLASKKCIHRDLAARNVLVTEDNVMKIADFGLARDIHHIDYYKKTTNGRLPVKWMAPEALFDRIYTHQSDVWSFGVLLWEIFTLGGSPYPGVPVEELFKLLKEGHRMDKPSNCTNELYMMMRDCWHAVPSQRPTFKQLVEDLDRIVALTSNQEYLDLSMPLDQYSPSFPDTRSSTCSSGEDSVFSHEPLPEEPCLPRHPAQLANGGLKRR
Sequence of FGFR3 (P22607 whole entry, looked up): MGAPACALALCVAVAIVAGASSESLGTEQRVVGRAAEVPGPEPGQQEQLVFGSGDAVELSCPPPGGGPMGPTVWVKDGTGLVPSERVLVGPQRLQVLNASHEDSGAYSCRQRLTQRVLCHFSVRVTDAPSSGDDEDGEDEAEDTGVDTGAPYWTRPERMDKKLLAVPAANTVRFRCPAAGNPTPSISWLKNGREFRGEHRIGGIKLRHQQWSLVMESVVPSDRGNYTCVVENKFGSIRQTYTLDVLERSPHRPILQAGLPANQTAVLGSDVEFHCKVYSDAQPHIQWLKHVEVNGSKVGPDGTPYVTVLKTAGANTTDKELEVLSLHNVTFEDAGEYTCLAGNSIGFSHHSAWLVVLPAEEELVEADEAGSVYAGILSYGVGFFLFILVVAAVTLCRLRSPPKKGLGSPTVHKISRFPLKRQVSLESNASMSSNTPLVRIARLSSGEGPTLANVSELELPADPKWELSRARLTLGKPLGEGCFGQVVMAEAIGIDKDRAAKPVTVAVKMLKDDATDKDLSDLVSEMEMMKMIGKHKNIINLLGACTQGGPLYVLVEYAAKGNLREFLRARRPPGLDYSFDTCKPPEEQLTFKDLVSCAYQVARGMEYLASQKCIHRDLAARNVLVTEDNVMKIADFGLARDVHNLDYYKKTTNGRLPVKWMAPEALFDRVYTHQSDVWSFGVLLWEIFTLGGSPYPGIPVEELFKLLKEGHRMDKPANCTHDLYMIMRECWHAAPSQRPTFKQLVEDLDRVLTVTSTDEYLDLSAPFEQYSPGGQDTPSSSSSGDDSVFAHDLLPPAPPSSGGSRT
Sequence of Grb2 SH2 (P62993 whole entry, looked up): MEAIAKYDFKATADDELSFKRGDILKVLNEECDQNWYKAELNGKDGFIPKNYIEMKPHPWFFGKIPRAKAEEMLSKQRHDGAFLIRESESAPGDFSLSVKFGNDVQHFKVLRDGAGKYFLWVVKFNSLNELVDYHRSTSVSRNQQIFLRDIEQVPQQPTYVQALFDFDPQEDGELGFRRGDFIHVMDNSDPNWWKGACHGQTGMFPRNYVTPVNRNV

Row | Sequence | phosphorylation enrichment (AncSZ) | phosphorylation enrichment (EPHB1) | phosphorylation enrichment (EPHB2) | phosphorylation enrichment (FGFR1) | phosphorylation enrichment (FGFR3) | phosphorylation enrichment (Fer (mouse)) | phosphorylation enrichment (Fes) | phosphorylation enrichment (Fyn) | phosphorylation enrichment (Hck) | phosphorylation enrichment (Jak2) | phosphorylation enrichment (MERTK) | phosphorylation enrichment (c-Abl (mouse)) | phosphorylation enrichment (c-Src) | SH2 binding enrichment (Grb2 SH2) | SH2 binding enrichment (SHP2-C SH2) | SH2 binding enrichment (c-Src SH2)
1 | KHCEDYVFSYN [DSC1_Y846_C848F] | 2.06 | 0.855 | 0.719 | 2.41 | 1.98 | 0.511 | 1.31 | 0.576 | 0.521 | 1.08 | 0.489 | 0.778 | 1.77 | 0.806 | 0.595 | 0.552
2 | IQRSLYDRPAS [PDGFRA_Y762] | 0.699 | 0.488 | 0.479 | 0.489 | 0.469 | 0.988 | 0.643 | 0.613 | 1.59 | 0.577 | 0.689 | 0.541 | 0.458 | 0.83 | 0.543 | 1.98
3 | EERKTYVNTTL [TEK_Y1102] | 0.83 | 0.526 | 0.519 | 0.464 | 0.586 | 0.551 | 0.977 | 0.45 | 0.48 | 0.983 | 0.498 | 0.779 | 0.446 | 8.42 | 0.571 | 0.516
4 | KSAAIYNPVIF [RHO_Y301_YF] | 0.757 | 0.559 | 0.519 | 0.567 | 0.557 | 16.1 | 0.939 | 5.56 | 8.01 | 0.634 | 4.6 | 1.11 | 4.71 | 0.721 | 0.75 | 0.589
5 | LVSCAYQMARG [FGFR1_Y605_V607M] | 1.22 | 0.578 | 0.79 | 0.66 | 0.882 | 0.824 | 2.32 | 0.589 | 0.741 | 0.937 | 0.489 | 0.998 | 1.4 | 0.731 | 0.9 | 0.661
6 | RIVEIYTRRLQ [GCH1_Y175_S176T] | 0.936 | 0.503 | 0.462 | 0.515 | 0.632 | 0.436 | 0.949 | 0.543 | 0.613 | 0.637 | 0.605 | 0.517 | 1.01 | 0.756 | 0.58 | 0.325
7 | FKDVTYLKEEK [UBE3A_Y127_T129K] | 0.891 | 0.466 | 0.447 | 0.481 | 0.728 | 0.49 | 1.28 | 0.514 | 0.442 | 0.986 | 0.38 | 0.809 | 0.523 | 0.823 | 0.465 | 0.642
8 | KEINDYVEKGT [SERPINA1_Y184_Q180E] | 1.21 | 0.513 | 0.56 | 0.558 | 0.632 | 0.492 | 0.954 | 0.514 | 0.515 | 0.75 | 0.439 | 0.621 | 0.517 | 0.981 | 0.568 | 0.461
9 | FASALYRQRRS [FGF11_Y162_YF] | 0.689 | 0.513 | 0.622 | 0.668 | 0.531 | 0.991 | 0.592 | 0.577 | 0.546 | 0.468 | 0.565 | 0.563 | 0.577 | 0.79 | 0.576 | 0.516
10 | RNESFYDTFST [EFCAB3_Y372] | 1.07 | 17.3 | 21 | 0.852 | 0.915 | 13.2 | 1.46 | 16.4 | 14.3 | 0.891 | 15.6 | 2.23 | 10.5 | 0.826 | 0.913 | 0.542
11 | PSSNLYFRCLT [CNGA3_Y168_W171C_YF] | 1.5 | 0.828 | 0.809 | 1.19 | 1.03 | 0.694 | 1.63 | 0.707 | 0.88 | 1.66 | 0.808 | 0.967 | 0.48 | 0.75 | 0.636 | 0.379
12 | IAINKYEVSLI [MYO7A_Y2136_G2137E] | 0.89 | 0.505 | 0.562 | 0.445 | 0.635 | 0.486 | 0.99 | 0.514 | 0.493 | 0.851 | 0.371 | 0.598 | 0.451 | 0.805 | 0.981 | 0.59
13 | PVVKLYATEGR [RP1_Y199_D202E] | 0.858 | 0.389 | 0.251 | 0.496 | 0.568 | 0.455 | 0.807 | 0.633 | 0.794 | 0.683 | 0.574 | 0.71 | 0.54 | 0.966 | 1.1 | 0.702
14 | GNEEAYGSSHI [FAM171B_Y522_R524S] | 0.763 | 0.465 | 0.525 | 0.48 | 0.518 | 0.4 | 0.817 | 0.521 | 0.489 | 0.718 | 0.526 | 0.866 | 0.549 | 0.663 | 0.751 | 0.435
15 | DFTSRYLNASD [PKHD1_Y828] | 0.797 | 0.46 | 0.407 | 0.469 | 0.572 | 0.45 | 0.893 | 0.468 | 0.47 | 0.616 | 0.511 | 0.512 | 0.43 | 1.25 | 0.779 | 0.633
16 | CTTIHYNFMCI [TP53_Y234_N239I_YF] | 1.05 | 0.621 | 0.673 | 0.598 | 0.707 | 0.706 | 1.26 | 0.477 | 0.529 | 0.969 | 0.392 | 0.809 | 0.434 | 1.71 | 1.57 | 1.72
17 | CEHRGHLFLAI [TEK_Y897_Y897H_YF] | 1.02 | 0.625 | 0.544 | 0.536 | 0.908 | 0.463 | 1.11 | 0.516 | 0.547 | 0.888 | 0.482 | 0.806 | 0.453 | 1.41 | 1.06 | 0.867

Row | Sequence | phosphorylation enrichment (AncSZ) | phosphorylation enrichment (EPHB1) | phosphorylation enrichment (EPHB2) | phosphorylation enrichment (FGFR1) | phosphorylation enrichment (FGFR3) | phosphorylation enrichment (Fer (mouse)) | phosphorylation enrichment (Fes) | phosphorylation enrichment (Fyn) | phosphorylation enrichment (Hck) | phosphorylation enrichment (Jak2) | phosphorylation enrichment (MERTK) | phosphorylation enrichment (c-Abl (mouse)) | phosphorylation enrichment (c-Src) | SH2 binding enrichment (Grb2 SH2) | SH2 binding enrichment (SHP2-C SH2) | SH2 binding enrichment (c-Src SH2)
18 | LERYIYNREEF [HLA-DPB1_Y59] | 1.05 | 0.756 | 1.22 | 0.564 | 1.18 | 0.587 | 1.24 | 1.26 | 1.56 | 0.874 | 0.629 | 0.757 | 2.63 | 0.956 | 0.698 | 0.634
19 | TVDASYYGGRG [ANTXR2_Y380] | 0.512 | 0.411 | 0.503 | 0.546 | 0.561 | 0.559 | 0.66 | 0.73 | 1.14 | 0.609 | 0.495 | 0.576 | 0.642 | 0.763 | 0.424 | 0.604
20 | AVLALYNSTRD [TGFB1_Y81] | 0.755 | 0.466 | 0.53 | 0.493 | 0.547 | 0.531 | 0.942 | 0.462 | 0.511 | 0.78 | 0.639 | 0.702 | 0.489 | 0.835 | 0.55 | 0.688
21 | RQSTLYSFFPK [MSH6_Y8] | 1.34 | 18.4 | 18.9 | 6.8 | 5.16 | 4.37 | 1.77 | 5.84 | 14.6 | 0.685 | 22.1 | 5.61 | 7.83 | 1.47 | 1.19 | 1.03
22 | ICANKYMVESC [RPL10_Y75_K78E] | 0.982 | 0.482 | 0.502 | 0.596 | 0.659 | 0.455 | 1.14 | 0.47 | 0.574 | 0.982 | 0.432 | 0.657 | 0.53 | 0.913 | 0.861 | 0.675
23 | CTTIHQNYMCN [TP53_Y234_Y234Q] | 0.735 | 0.536 | 0.432 | 0.463 | 0.56 | 0.387 | 0.917 | 0.361 | 0.41 | 0.796 | 0.503 | 0.695 | 0.414 | 0.923 | 1.13 | 0.982
24 | SVTCTYYPALN [TP53_Y126_S127Y] | 1.52 | 0.645 | 0.617 | 0.499 | 0.831 | 0.556 | 1.36 | 0.48 | 0.592 | 1.36 | 0.412 | 1.01 | 0.575 | 0.68 | 0.693 | 0.373
25 | MSPPGYKLVNG [GJA1_Y286_T290N] | 0.429 | 0.403 | 0.38 | 0.58 | 0.438 | 0.315 | 0.561 | 0.412 | 0.448 | 0.564 | 0.412 | 0.52 | 0.461 | 0.837 | 0.609 | 0.439
26 | YQLPYYNMVPS [BMPR1A_Y458] | 2.75 | 2.58 | 2.52 | 13.1 | 10.5 | 5.67 | 0.802 | 3.36 | 3.28 | 10.4 | 8.84 | 3.96 | 5.1 | 11.4 | 1.73 | 5.08
27 | VMVCAYLLHRG [PTEN_Y138_I135V] | 1.13 | 0.614 | 0.538 | 0.502 | 0.78 | 0.558 | 1.3 | 0.478 | 0.584 | 1.23 | 0.481 | 1.18 | 0.558 | 0.91 | 0.723 | 0.724
28 | RGFRQYAFDGK [HLA-A_Y140_D140Y_YF] | 0.77 | 0.715 | 0.51 | 0.557 | 0.779 | 0.425 | 0.66 | 0.546 | 0.711 | 0.381 | 0.584 | 0.595 | 0.653 | 0.832 | 0.794 | 0.534
29 | EKIANYKEGTF [CLRN1_Y171_YF] | 0.967 | 0.53 | 0.474 | 0.461 | 0.537 | 0.408 | 0.823 | 0.465 | 0.4 | 0.724 | 0.498 | 0.543 | 0.5 | 0.91 | 0.554 | 0.443
30 | IEDPYYGNDSD [ACP1_Y133] | 1.5 | 0.638 | 0.809 | 0.807 | 1.09 | 0.548 | 1.39 | 0.81 | 0.759 | 1.35 | 0.45 | 0.83 | 1.6 | 1.07 | 0.709 | 0.623
31 | NPQKPYFIRLF [WAS_Y83_S82P_YF] | 1.17 | 0.633 | 0.579 | 0.511 | 0.637 | 0.457 | 1 | 0.438 | 0.479 | 0.878 | 0.423 | 0.423 | 0.373 | 0.919 | 0.924 | 0.504
32 | VPLATYMQIYK [RPL21_Y30_R32Q] | 0.749 | 1.98 | 0.737 | 0.448 | 0.53 | 0.315 | 0.636 | 0.975 | 2.01 | 0.51 | 0.541 | 0.565 | 1.16 | 0.909 | 0.791 | 0.73
33 | PRARTYCYKQE [KLHDC9_Y175_S171R] | 0.847 | 0.467 | 0.574 | 0.497 | 0.557 | 0.716 | 1.01 | 0.527 | 0.435 | 0.981 | 0.483 | 0.91 | 0.667 | 1.27 | 0.834 | 0.661

— the supplement of paper PMC10065799, “High-throughput profiling of sequence recognition by tyrosine kinases and SH2 domains using bacterial peptide display” (eLife, 2023)
